# Data as given in paper PMC3695512, “Recognition of two distinct elements in the RNA substrate by the RNA-binding domain of the T. thermophilus DEAD box helicase Hera”.
# T1: GST-Hera_RBD (Thermus thermophilus, UniProt O07897 424-510)
# T1 sequence: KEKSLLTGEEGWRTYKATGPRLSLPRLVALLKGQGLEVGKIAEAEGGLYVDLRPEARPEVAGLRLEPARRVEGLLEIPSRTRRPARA
# T2: Hera full-length (Thermus thermophilus, UniProt O07897 1-510)
# T2 sequence: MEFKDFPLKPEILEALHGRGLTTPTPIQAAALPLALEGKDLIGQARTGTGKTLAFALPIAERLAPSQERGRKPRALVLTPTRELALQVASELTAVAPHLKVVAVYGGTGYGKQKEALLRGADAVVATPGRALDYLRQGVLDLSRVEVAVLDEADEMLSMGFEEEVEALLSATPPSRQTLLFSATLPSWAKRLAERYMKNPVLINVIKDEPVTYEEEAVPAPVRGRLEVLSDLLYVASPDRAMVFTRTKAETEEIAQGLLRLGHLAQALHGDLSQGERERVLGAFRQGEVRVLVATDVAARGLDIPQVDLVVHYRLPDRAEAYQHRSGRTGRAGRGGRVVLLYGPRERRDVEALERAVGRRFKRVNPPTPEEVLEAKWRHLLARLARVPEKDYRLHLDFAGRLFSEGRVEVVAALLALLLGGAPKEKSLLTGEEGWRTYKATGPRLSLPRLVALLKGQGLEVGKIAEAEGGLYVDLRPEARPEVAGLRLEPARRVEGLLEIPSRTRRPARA
# T3: Hera_core (Thermus thermophilus, UniProt O07897 1-369)
# T3 sequence: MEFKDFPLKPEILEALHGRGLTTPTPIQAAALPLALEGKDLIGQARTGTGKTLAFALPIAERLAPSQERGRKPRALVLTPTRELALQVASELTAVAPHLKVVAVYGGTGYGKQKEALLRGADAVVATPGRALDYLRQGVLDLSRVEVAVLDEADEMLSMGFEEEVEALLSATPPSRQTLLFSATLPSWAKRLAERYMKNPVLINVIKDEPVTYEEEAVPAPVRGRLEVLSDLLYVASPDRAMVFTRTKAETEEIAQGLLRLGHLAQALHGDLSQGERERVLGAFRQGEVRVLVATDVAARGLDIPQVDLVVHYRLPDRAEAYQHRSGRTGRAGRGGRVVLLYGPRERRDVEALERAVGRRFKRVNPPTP
# Legend:
# [1] = target: T1, GST-Hera_RBD; test: EMSA; 6 uM RNA; 12% glycerol; Anisotropy: 50 mM Tris/HCl pH 7.5, 150 mM NaCl, 5 mM MgCl2 (Fig 2), 25 C, 50 nM RNA; EMSA: same Tris/NaCl, 12% glycerol, 25 C; NMR: 25 mM Bis-Tris/HCl pH 6.0, 50 mM NaCl, 10% D2O, 37 C; conditions: protein: recombinant; tags: N-terminal GST; label: 5'-fluorescein; hairpin with 5' single strand
# [2] = target: T2, Hera full-length; test: fluorescence anisotropy; no ATP; 5 mM Mg2+; Anisotropy: 50 mM Tris/HCl pH 7.5, 150 mM NaCl, 5 mM MgCl2 (Fig 2), 25 C, 50 nM RNA; EMSA: same Tris/NaCl, 12% glycerol, 25 C; NMR: 25 mM Bis-Tris/HCl pH 6.0, 50 mM NaCl, 10% D2O, 37 C; conditions: protein: recombinant; chain copies: 2; label: 5'-fluorescein; hairpin with 5' single strand
# [3] = target: T1, GST-Hera_RBD; test: as above; conditions: protein: recombinant; tags: N-terminal GST; label: 5'-fluorescein; hairpin with 5' single strand
# [4] = target: T3, Hera_core; test: as above; conditions: protein: recombinant; label: 5'-fluorescein; hairpin with 5' single strand
binder,measurement,setting,value
GCAGGUCCCAAGGGUUGGGCUGUUCGCCCAUU (structured_RNA) [32mer],Kd,[1],~7 µM
same,Kd,[2],130 ± 70 nM
same,Kd,[3],450 ± 36 nM
same,Kd,[4],1000 ± 180 nM
